# Measurements from US8557777B2, “Methods for treating cancer using prostate specific antigen and tumor endothelial marker peptides” (The Board of Trustees of the University of Illinois, priority 2010, dated 2013).
# Ends that are not written are not given here.
# Key:
# patients with CaP [1] = conditions: in vivo
# patients with CaP [2] = test: Toxicity graded by NIH Common Terminology Criteria for Adverse Events v3.0
# HLA-A2 = HLA-A2 (Homo sapiens, UniProt P04439, D140Y/D185E/D98H/E176V/E277Q/G131W/G231S/I119V/I121R/I166T/I218V/L300P/L318F/N151K/N90K/P208A/P217A/Q86G/Q94H/R138H/R169H/T345S); test: T2 binding assay: stabilization of HLA-A2 expression by TEM8 peptides; conditions: for expression of HLA-A2 on T2 cells over baseline levels: baseline T2 + DMSO, TEM8 207-215 10 ug/ml, TEM8 298-306 40 ug/ml (FIG. 9)
# HLA-A201 = target: T1, HLA-A201 (Homo sapiens, UniProt P04439, D140Y/D185E/D98H/E176V/E277Q/G131W/G231S/I119V/I121R/I166T/I218V/L300P/L318F/N151K/N90K/P208A/P217A/Q86G/Q94H/R138H/R169H/T345S); test: Peptide-binding assay on T2 cells (PSA peptide)
# T1 construct: stabilize the expression of HLA-A2 on antigen-processing defective T2 cell line; host or cells: T2 cells
# Protocol: The antigen-processing defective cell line, T2, was used to assay peptide binding to HLA-A201 as previously detailed [Xue et al., Prostate 30(2): 73-8 (1997)]. Briefly, T2 cells (5×10^5/well) were pulsed with PSA-peptide or DMSO at the designated concentration and cultured in 24-well plates overnight (18 hours) at 37° C. in 5% CO2 atmosphere. HLA-A2 expression was measured by flow cytometry using FITC conjugated anti HLA-A2 antibody (clone BB7.2) from BD Biosciences (San Diego, Calif.).
# [3] = type: physicochemical
# Protocol: Identified candidate peptides were synthesized (Protein Laboratory, Research Resources Facility, University of Illinois, Chicago) at greater than 95% purity, dissolved in dimethylsulphoxide (DMSO) at a concentration of 5 mg/ml and stored at −20° C. Peptides were tested for their ability to stabilize the expression of HLA-A2 on antigen-processing defective T2 cell line (ATCC, Manassas, Va.) as previously described [Xue et al., Prostate 1997; 30:73-78]. Briefly, 5×10^5 T2 cells in RPMI 1640 medium containing 10% fetal bovine serum (BioWhitaker, Walkersville, Md.) were incubated with varying amounts (1 to 80 ug/ml) of TEM8 peptide or control HIV-RT476-484 peptide, and cultured in 24 well plates for 18 hours at 37° C. HLA-A2 expression was visualized by direct staining with FITC conjugated MA2.1 antibody or an isotype control (BD Biosciences, San Diego, Calif.) followed by analysis on a FC500 flow cytometer (Beckman Coulter, Miami, Fla.).
# TEM8 is known to share 60% sequence homology within the extracellular integrin-like-I domain region with another protein called capillary morphogenesis protein 2 (CMG2) that is widely expressed in normal tissues [Chen et al., J Biol. Chem. 2007 Mar. 30; 282(13):9834-45. Epub 2007 Jan 24]. […] Three remaining peptides were tested in T2 binding assays. […]
T2 binding (HLA-A2),Compound,expression of HLA-A2 on T2 cells over baseline levels (HLA-A2),also measured
,CC(C)C[C@H](NC(=O)[C@H](CC(=O)O)NC(=O)[C@@H](NC(=O)[C@H](CS)NC(=O)[C@H](CCC(N)=O)NC(=O)[C@H](CC(C)C)NC(=O)[C@@H](N)CCCCN)C(C)C)C(=O)N[C@@H](Cc1c[nH]cn1)C(=O)N[C@H](C(=O)O)C(C)C [PSA146-154 peptide],,"treatment related grade 3/4 toxicities (patients with CaP [1]): no treatment related grade 3/4 toxicities; late safety (patients with CaP [2]; after six to eight years of monitoring): no late safety concerns or deleterious sequelae; reactions at the site of injection (patients with CaP [2]; all patients under protocol-1 (intradermal peptide + GM-CSF)): Mild pain, itching, and erythema with or without induration"
Yes,"ALQGIIHSI [TEM8 207-215, 9-mer HLA-A0201 peptide of Tumor Endothelial Marker-8]",showed enhanced expression of HLA-A2 over baseline levels,binding affinity in comparison to HIV-RT 476-484 (HLA-A2; control HLA-0201 binding peptide): greater binding affinity
,"CALPERPSLYTKVVHYRKWIK [PSA210-230 peptide, long chain synthetic peptide corresponding to PSA residues 210-230]",,HLA-A201 binding capacity (HLA-A201): binds with high affinity in a concentration dependent fashion
,FLLLALALL [TEM8 331-339],,solubility in DMSO [3]: insoluble in DMSO
Yes,"SMNDGLSFI [TEM8 298-306, 9-mer HLA-A0201 peptide of Tumor Endothelial Marker-8]",showed enhanced expression of HLA-A2 over baseline levels,
No,"TLNEKPFSV [TEM8 266-274, 9-mer HLA-A0201 peptide of Tumor Endothelial Marker-8]",did not,
